The results in this text go back to publication PMC5105168, “AKAP95 regulates splicing through scaffolding RNAs and RNA processing factors” (Nature Communications, 2016).

First the molecules themselves.
B1: purified Flag-tagged AKAP95 (natural protein)
chain: not shown
notes: AKAP95 (AKAP8) cDNA in pFastBac1; also called F-AKAP95; FLAG-AKAP95; source: sf9 cells (baculovirus), purified (anti-FLAG M2 agarose, FLAG peptide elution)

Assay [1] has as its target T1, purified AKAP95-MBP fusion protein (human, UniProt O43823 1-692).
T1 construct: AKAP95 (AKAP8); source: sf9 cells (baculovirus), purified on amylose resin, kept on the resin
Description: pull-down; purified MBP or AKAP95-MBP bound to amylose resin, purified F-AKAP95 in solution, BC200, 0.05% NP40, immunoblot. To be noted: both partners purified. (In western blotting, separated proteins are transferred to a membrane and probed.)

Assay [2] concerns the target B1. Description: pull-down; GST fusions bound to glutathione resin, purified F-AKAP95 proteins in solution, BC200, 0.1% NP40, immunoblot. Conditions: both partners purified.

T1 sequence (O43823 whole entry, the tested form may be a part): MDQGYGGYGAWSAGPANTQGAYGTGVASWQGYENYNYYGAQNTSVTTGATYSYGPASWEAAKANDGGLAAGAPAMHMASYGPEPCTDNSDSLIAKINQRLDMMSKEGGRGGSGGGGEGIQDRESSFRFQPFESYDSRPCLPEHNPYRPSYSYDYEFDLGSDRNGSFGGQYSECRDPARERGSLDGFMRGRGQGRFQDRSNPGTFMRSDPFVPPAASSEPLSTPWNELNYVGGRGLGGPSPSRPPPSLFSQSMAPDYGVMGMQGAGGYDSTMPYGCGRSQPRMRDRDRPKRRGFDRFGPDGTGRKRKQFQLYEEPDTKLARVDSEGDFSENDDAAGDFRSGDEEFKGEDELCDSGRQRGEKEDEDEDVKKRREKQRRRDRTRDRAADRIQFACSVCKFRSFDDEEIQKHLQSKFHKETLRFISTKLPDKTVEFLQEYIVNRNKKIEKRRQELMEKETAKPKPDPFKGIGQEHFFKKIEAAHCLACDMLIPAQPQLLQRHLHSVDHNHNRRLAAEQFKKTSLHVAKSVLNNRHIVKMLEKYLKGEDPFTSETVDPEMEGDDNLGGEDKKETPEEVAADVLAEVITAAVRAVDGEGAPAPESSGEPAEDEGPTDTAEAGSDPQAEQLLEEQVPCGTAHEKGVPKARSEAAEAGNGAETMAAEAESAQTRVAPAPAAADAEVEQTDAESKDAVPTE

As to B1, the binding result in assay [1] is given as “binds”.

B2: GST-hnRNP H1 (natural protein, human (cDNA from 293 cells), UniProt P31943 1-449, looked up)
chain: MMLGTEGGEGFVVKVRGLPWSCSADEVQRFFSDCKIQNGAQGIRFIYTREGRPSGEAFVELESEDEVKLALKKDRETMGHRYVEVFKSNNVEMDWVLKHTGPNSPDTANDGFVRLRGLPFGCSKEEIVQFFSGLEIVPNGITLPVDFQGRSTGEAFVQFASQEIAEKALKKHKERIGHRYIEIFKSSRAEVRTHYDPPRKLMAMQRPGPYDRPGAGRGYNSIGRGAGFERMRRGAYGGGYGGYDDYNGYNDGYGFGSDRFGRDLNYCFSGMSDHRYGDGGSTFQSTTGHCVHMRGLPYRATENDIYNFFSPLNPVRVHIEIGPDGRVTGEADVEFATHEDAVAAMSKDKANMQHRYVELFLNSTAGASGGAYEHRYVELFLNSTAGASGGAYGSQMMGGMGLSNQSSYGGPASQQLSGGYGGGYGGQSSMSGYDQVLQENSSDFQSNIA
notes: hnRNP H1, cDNA amplified from 293 cell cDNAs, cloned into pGEX-4T-1; source: E. coli BL21 (DE3), purified on glutathione sepharose 4B without elution
On to B2, for which the binding result in assay [2] is “binds”.
